Assay results taken from publication PMC7577714, “Regulation of chaperone function by coupled folding and oligomerization” (Science Advances, 2020).
Numbering of substitutions follows the chain as printed. Names may count otherwise.

B1: Skp(WT), seventeen kilodalton protein, periplasmic chaperone of Escherichia coli (natural protein, E. coli, UniProt P0AEU7 21-161, looked up)
chain: ADKIAIVNMGSLFQQVAQKTGVSNTLENEFKGRASELQRMETDLQAKMKKLQSMKAGSDRTKLEKDVMAQRQTFAQKAQAFEQDRARRSNEERGKLVTRIQTAVKSVANSQDIDLVVDANAVAYNSSDVKDITADVLKQVK
notes: Stands in a monomer-trimer equilibrium; the active form is the homotrimer; The thrombin-cleavable His6-tag of pET28b was not cleaved; Isotope-labelled for NMR in some samples; source: E. coli BL21-(λ DE3)-Lemo, purified (Ni-NTA, SEC); not shown: His6, N-terminal, kept
B2: Skp(A108R) (natural protein, E. coli, UniProt P0AEU7 21-161, looked up)
chain: B1 chain with A108R
notes: Fully monomeric up to 1 mM; source: E. coli BL21-(λ DE3)-Lemo, purified (Ni-NTA, SEC); not shown: His6, N-terminal, kept
B3: Skp(A103L) (natural protein, E. coli, UniProt P0AEU7 21-161, looked up)
chain: B1 chain with A103L
notes: Monomer-trimer equilibrium essentially as the wild type; source: E. coli BL21-(λ DE3)-Lemo, purified (Ni-NTA, SEC); not shown: His6, N-terminal, kept
B4: Skp(A103R) (natural protein, E. coli, UniProt P0AEU7 21-161, looked up)
chain: B1 chain with A103R
notes: Monomer-trimer equilibrium shifted toward the monomer; source: E. coli BL21-(λ DE3)-Lemo, purified (Ni-NTA, SEC); not shown: His6, N-terminal, kept
B5: Skp(A108L) (natural protein, E. coli, UniProt P0AEU7 21-161, looked up)
chain: B1 chain with A108L
notes: Monomer-trimer equilibrium strongly shifted toward the monomer; also called Skp(108L); source: E. coli BL21-(λ DE3)-Lemo, purified (Ni-NTA, SEC); not shown: His6, N-terminal, kept

Key:
[1] = biological target: tOmpA, the eight-stranded transmembrane domain of OmpA (residues 1 to 177); assay: NMR quantification of Skp-bound tOmpA after complex assembly (holdase assay); excess of denatured [U-2H,15N]-tOmpA added dropwise to unlabeled Skp in 20 mM MES pH 6.5, 150 mM NaCl, aggregate spun down, tOmpA signals in 2D [15N,1H]-TROSY of the supernatant, 37°C, normalised to Skp(WT)
Skp(V117P) (E. coli) = Skp(V117P) (E. coli) (UniProt P0AEU7); assay: solution NMR (signal intensities of monomer and trimer) + SEC-MALS; fraction of monomer against total Skp concentration, 25°C, 20 mM MES pH 6.5, 150 mM NaCl; monomer to trimer; C0.5 is the protein concentration at which half of the molecules are monomeric
P0AEU7 [2] = assay: SEC-MALS; Skp variants alone, elution concentration ≃80 μM, 25°C, 20 mM MES pH 6.5, 150 mM NaCl; monomer to trimer
[3] = biological target: the molecule itself; assay: as above
[4] = biological target: the molecule itself; assay: as above; remark: listed apart in the source
[5] = biological target: the molecule itself; assay: solution NMR (signal intensities of monomer and trimer) + SEC-MALS; fraction of monomer against total Skp concentration, 25°C, 20 mM MES pH 6.5, 150 mM NaCl; monomer to trimer; C0.5 is the protein concentration at which half of the molecules are monomeric
[6] = biological target: the molecule itself; assay: as above; remark: listed apart in the source
P0AEU7 [7] = assay: solution NMR (signal intensities of monomer and trimer); Skp variants alone at 37°C, 20 mM MES pH 6.5, 150 mM NaCl; monomer to trimer; settings: other: solution NMR (signal intensities of monomer and trimer)

Molecule	Skp activity (% of WT), amount of Skp-bound tOmpA [1]	C0.5 (Skp(V117P) (E. coli)) [µM]	Monomer (%) at c ≃ 80 μM (P0AEU7 [2]) [%]	stoichiometry N [3]	Trimer (%) at c ≃ 80 μM [4] [%]	C0.5 [5] [µM]	stoichiometry N [6]	monomer (%) at 1 mM, 37°C (P0AEU7 [7])	monomer (%) at 37°C (P0AEU7 [7])
Skp(V117P) (from UniProt P0AEU7 21-161) (natural protein)	1 % of WT	> 1000	–	–	–	–	–	–	–
B1	100 % of WT	–	3	3	97	1.5	–	–	–
B2	1 % of WT	–	–	–	–	> 1000	–	–	–
B3	100 % of WT	–	6	–	94	1.5	3	–	–
B4	87 % of WT	–	14	–	86	7 ± 2	3	–	–
B5	55 % of WT	–	53	–	47	80 ± 20	3	around 95% monomer at a concentration of 1 mM	more than 80% in its monomeric state
